Laboratory results reported in the nanobody polyreactivity screen of Harvey et al. (2022).

Assay: yeast display, Sf9 membrane polyspecificity reagent, FACS + sequencing; frameworks hold sequencing errors
Method in brief: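 Nanobodies came from a synthetic yeast display library in Saccharomyces cerevisiae BJ5465, induced with galactose for 36–48 hours and stained for 1 hour at 4 °C with 10% biotinylated, detergent-solubilized Sf9 membrane reagent. Cells were enriched on streptavidin microbeads and then FACS-sorted, with low and high (top ~1%) gates set on anti-HA fluorescence for expression and streptavidin fluorescence for reagent binding. Each polyreactivity label reflects the gate a clone came from. Genes were amplified by colony PCR, sequenced by MiSeq 2 × 250 and filtered by CDR length.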
For “QVQIVESGGGLVQAGGSLRLSWAASGSNLDFNAMGWYRQAHGKERELVAAINNSGGSTYYADSLKGRFTISRDTAKKTVYLQMNRLKPEDTAVYYCARYAFWKRAYWGQGTQETVSS”, the “polyreactivity (PSR sort gate)” value was “low polyreactivity”.
With “QVQLVESGGGLVQAGGSLRLSCAASGLIFVGYAMGWYRQAPGKERELVAAITSGGSTYYADSVKGRFTISRDNAKNTVYLQMNSLKPEDTAVYYCAAQQGISNGTGVSATNPMDYWGHGTQVTVSS” the “polyreactivity (PSR sort gate)” value was “low polyreactivity”.
For “QVQLVESGGGLVQAGGSLRLSCAASGRTFEYNGMGWYSQAPGKEWELVAAITRGGSTYYADSVKGRFTISRDNAKNTVYLQMNSLKPEDTAVYYCAAVVGWSRYKWLEYWGQGTQVTVSS”, the “polyreactivity (PSR sort gate)” value was “low polyreactivity”.
For “QVQLVESGGGLVQAGGSLRLSCAASGRIFAYYAMGWYRQAPGKERELVAAITRRSGDTTYYADSVKGRFTISRDNAKNTVYLQMNSLKPEDTAVYYCAARNPSFSSQYYSWGQGTQVTVSS”, the “polyreactivity (PSR sort gate)” value was “high polyreactivity”.
For “QVQLVESGGGLVQAGGSLRLSCAASGGTFRAYVMGWYRQAPGKERELVAAISRRGGSTYYADSVKGRFTISRDNAKNTVYLQMNSLKPEDTAVYYCNAPRLLLSYTPGLDRWPYGVYWGQGTQVTVSS”, the “polyreactivity (PSR sort gate)” value was “high polyreactivity”.
For “QVHLVESGGGLVQAGGILRLSCAAFGFTFKSYAMVWYIQAPGKERELVAGITSSGGGTYYADSVKGRFTISRDNAKNTVYLQMNSLKPEDTAVYYCNTYSYLFSRYGYWGQGTQVTVSS”, the “polyreactivity (PSR sort gate)” value was “high polyreactivity”.
In the case of “QVQLQESGGGLVQAGGSRRLSCAASGSISNLIAKCWYRQAQGKEREFVAAIGPGANTNYADSVKGRFTISRDNAKNPVYLQMNSRTPEDTAVYYCAVDYYGEAVYHYWGQGTQVTVSS”, the “polyreactivity (PSR sort gate)” value is reported as “high polyreactivity”.
In the case of “QVHLVESGGGLVQAGGSLRLSCAASGSTFYIYAKGWYRQAPGKERELVAAIDWTGSTYYADSVKGRFTISRDNAKNTVYLQMNSLKPEDPAVYDCAAYYDLEDDSYRLNSWGQGTQVTVSS”, the “polyreactivity (PSR sort gate)” value is reported as “high polyreactivity”.
For “QVQLVESGGGLVQAGGSLRLSCAASGLTFPIYAMGWYRQAPGKEREFVAVITTSGGSTYYSDSVKGRFTISRDNAKNTVYLQMNSLKPEDTAVYYCNARRIRHYYWGQGTQVTVSS”, the “polyreactivity (PSR sort gate)” value was “high polyreactivity”.
In the case of “QVQLVESGGGLVQAGGSLRLSCAASGIIFYAYDMGWYRQAPGKERELVAAITFSAVSTYYADSVKGRFTISRDNAKNTVYLQMNSLKPEDTAVYYCAAEAYKHGVWDYDYWGQGTQVTVSS”, the “polyreactivity (PSR sort gate)” value is reported as “low polyreactivity”.
In the case of “QVQLVESGGGLVQAGGSLRLICAASGSIFYQNAMVGYRQAPGKERELVAAIRSRGGSTYYADSVKGRFTISRDNATNTVYLQMNSLKPEDTAVYYCNKLSRTTSYTYNYWGQGTQVTVSS”, the “polyreactivity (PSR sort gate)” value is reported as “low polyreactivity”.
For “QVQLVESGGGLVQAGGSLRLSCAASGSTFGLYAMGWYRQAPGKERELVAAISGGSGRTYYADSVKGRFTISRDNAKNTVYLQMNSLKPEDTAVYYCAAVPVYRHEYDYWGQGTQVTVSS”, the “polyreactivity (PSR sort gate)” value was “low polyreactivity”.
For “QVQLVESGGGLVHAGGSLRLSCAASGSTFHRYAMGWYRQAPGKERELVARINGSGGSTYYADSVKGRFTISRDNAKNSVYLQMNSLIPEDTAVYYCAAELDVYVSIGSRFHFDYWGQGTQVTVSS”, the “polyreactivity (PSR sort gate)” value was “low polyreactivity”.
For “QVQLVESGGGLVQAGGSLRLSCAASGFIFRWNTMGWYRQAPGKERELVAAISSRGGSTYYADSVKGRFKISRDNAKNTVYLQMNSLKPEDTAVYYCNAVRGDEYWGQGTQVTVSS”, the “polyreactivity (PSR sort gate)” value was “high polyreactivity”.
In the case of “QVQLVESAAGLVQAGGSLRLSCAASGSILKLNAMGWYRQAPGKERELVAAISRGGRTYYADSVKGRFTISRDNAKNTVYLQMHSLKPEDTAVYYCAADACLLGPGDFNYWGQGTQVTVSS”, the “polyreactivity (PSR sort gate)” value is reported as “low polyreactivity”.
For “QVQLVESGGGLVQAGGSLRLSCAASGRTFRYNAMGWYRQAPGKERELVAAISGSGGITYYADSVKGRFTISRDNAKNTVYLQMNSLKPEDTAVYYCAAVYRYNSDPDYDYWGQGTQVTVSS”, the “polyreactivity (PSR sort gate)” value was “high polyreactivity”.
In the case of “QVQLVESGGGLVQAGGSLRLSCAASGSIFASYAMGWYRQAPGKESELVAAITYSGSRTYYADSVKGRFTISRYNAKNTVYLQMNSMKPEDTAVYYCNADYYWYPYEDDYWGQGSQVTVSS”, the “polyreactivity (PSR sort gate)” value is reported as “low polyreactivity”.
In the case of “QVQLVESGGGLVQAGGSLRLSCAASGSTFVVNAMGWYRQAPGKERELVAAISWSGASTYYADSVKGRFTISRDNAKNTVYLQMKSLIQEDTAVYYCAADYSHYFYYYPSFVKFDYWGQGTQVTVSS”, the “polyreactivity (PSR sort gate)” value is reported as “high polyreactivity”.
With “QVQLVESGGGLVQAGGSLRLSCAASGRIFSYYTMGWYRQAPGKERELVAAISYRGGSTYADSVKGRFTISRDNAKNTVYLQMNSLKPEDTAVYYCAADDLSYVGYYYGYVDDDYWGQGTQVTVSS” the “polyreactivity (PSR sort gate)” value was “high polyreactivity”.
In the case of “QVQLVESGGGLVQAGGSLRLSCAASGILRANAIGWYRQAPGKERELVATINGDGATYADSVKGRFTISRDNAKNTVYLQLNSLKPEDTAVYYCAAGGGWVVKYDYWGQGTQVTVSS”, the “polyreactivity (PSR sort gate)” value is reported as “low polyreactivity”.
With “QVQLVESGGGLVQAGGSLRLSCAASGSIFYYAMGWYRQAPWKERELVADISTGGSTHYADSVKGRFTISRDNAKNTVYLQMNSLKPEDTAVYYCAKEAWRYRLNFRYNYWGQGTQVTVSS” the “polyreactivity (PSR sort gate)” value was “low polyreactivity”.
In the case of “QVQLVESGGGLVQAGGSLRLSCAASGSTFVGYAMGWYRQAPGKERELVAAITSRGGRTYYADSVKGRFTISRDNAKNTVYLQMNSLKPEDTAVYYCNAKRPRIGVTRYDYWGQGTQVTVSS”, the “polyreactivity (PSR sort gate)” value is reported as “high polyreactivity”.
In the case of “QFQLVESGGGLVQAGGSLRLSCAASGQILPYYAMGWYRQAPGKERELVAAISRTGGRTSYADSVNGRLTISRDNAKNTFYLQMNSLSPEDTAVYYCAAVGQSGGRRYDYWGQGTQVTVSS”, the “polyreactivity (PSR sort gate)” value is reported as “high polyreactivity”.
For “QVQLVESVGGLVQAGGSLRLSCAASGYTFYLYAMGWYRQAPGKERELVAAISYSSGGTYYADSVKGRFTISRDNAKNTVYLQMNSLKPEDTAVYYCAADAYDGEGTYPFEYWGQGTQVTVSS”, the “polyreactivity (PSR sort gate)” value was “low polyreactivity”.
With “QVQLVESGGGLVQAGGSLRLSAASGSTLAGNTMGWYRQAPGKERELVAAINDSGGSTYYADSVKGRFTISRDNAKNTVYLQMNSLKPEETAVYYCNADGSAYIEDGYDYWGQGTQVTVSS” the “polyreactivity (PSR sort gate)” value was “low polyreactivity”.
For “QVQLVESGGGLVQAGGSLRLSCAASGGIFPVNAMGWYRQAPGKERELVAAITWRGGRTYYADSVKGRFTISRDNSKNTVYLQMNSLKPEDTAVYYCAAYKGSSKYDYWGQGTQVTVSS”, the “polyreactivity (PSR sort gate)” value was “high polyreactivity”.
With “QVQLVESGGGLVQAGGSLRLSCAASGSIFWYYAMGWYRQAPGKERELVASITSGGSTNYADSVKGRFTISRDNAKNTVYLQMISLKPEDTAVYYCNTDDDSSSTGYYSWGQGTQVTVSS” the “polyreactivity (PSR sort gate)” value was “low polyreactivity”.
With “QVQLVESGGDLVQAGGSLRLSCAASGSIFYINAMGWYRQAPGKERELVASISYSGTSTYYADSVKGRFTISRDNAKNTFFLQMNSLKPEDTAVYYCNAEDTAGAGDGYWGEGTQVTVSS” the “polyreactivity (PSR sort gate)” value was “low polyreactivity”.
With “QVQLVESGGGLVQAGGSLRLSCAASGNIFSAYAMGWYRQAPGKERELVAAITNGGRTNYADSVKGRFSISRDNAKNTVYLQMNSLKPEDTAVYYCAVASTILGKRTYYYWGQGTQVTVSS” the “polyreactivity (PSR sort gate)” value was “low polyreactivity”.
For “QVQLVESGGGLVQAGGSLRLSCAASGRTFYYNVMGWYRQAPGKERELVAAISTGVSTNYADSVKGRFTISRDNAKNTVYLQMNSLKPEDTAVYYCNARSYRWYRPVYRYDYWGQGTQVTVSS”, the “polyreactivity (PSR sort gate)” value was “high polyreactivity”.
With “QVQLVESGGGLVQAGGSLRLSCAASGLTFGRNAMGWYRQAPGKERELVAAISQSGDRTYYADSVKGRFTISRDNAKNTVYLQMNSLKPEDTAVYYCNAVSSRGWYDYWGQGTQVTLSS” the “polyreactivity (PSR sort gate)” value was “high polyreactivity”.
For “QVQLVESGGGLVQAGGSLRLSCAASGFNFDGNALGWYRPAPGKERELVAAIRSGGRTNYADSVKGRFTISRDNAKNTVYLQMNSLKPEDTAVYYCAARSIYPYYYRRDNRYYYWGQGTQVTVSS”, the “polyreactivity (PSR sort gate)” value was “high polyreactivity”.
In the case of “QVQLVESGGGLVQAGGSLRLSCAASGITFPPYAMGWYRQAPGKERELVAAISWSGTSTYYADSVKGRFTISRDNAKNPVYLQMNSLKPEDTAVYYCAAVPRHPYHDKYDYWGQGTQVTVSS”, the “polyreactivity (PSR sort gate)” value is reported as “high polyreactivity”.
For “QVQLVESGGGLVQAGGSLRLSCADSGRTFYGNAMGWYRQAPGKERELVAAISISGGSTYYADSVKGRFTISRDNAKNTVYIQMNSLKPEDTAVYYCNAQEYYYYPYVYDSDYWGQGTQVTVSS”, the “polyreactivity (PSR sort gate)” value was “low polyreactivity”.
For “QVQLVESGGGLVQAGGSLRLSCAASGSTFDAYAMGWYRQAPGKERELVAAITWSGGSTYYADSVKGRFTISRDNAKNTVYLEMNSLKPEDTAVYYCAADKLGELDYWGQGTQVTVSS”, the “polyreactivity (PSR sort gate)” value was “low polyreactivity”.
With “QVQLVESGGGLVQAGGSLRLSCAASGGTIAYNAMGWYRQAPGKERELVAAISSSGGRTYYADSVKGRFTISRDNAKNTVYLQMNSLKPEDTAVYYCATPVTNGFDYWGQGTQVTVSS” the “polyreactivity (PSR sort gate)” value was “high polyreactivity”.
With “QVQLVESGGGLVQAGGSLRLSCAASGRTFWEHAMGWYRQAPGKERELVAAISGDSGSTYYADSVKGRFTISRDNANNSVYLQMNSLKPEDTAVYYCAGDSDRDDSYPYYYWGQGTQVTVSS” the “polyreactivity (PSR sort gate)” value was “low polyreactivity”.
In the case of “QVQLVESGGGLVQAGGCLRLSCAASGSTFEDYAMGWYRQATGKERALVAAINSGGSTYYADSVKGRFTFSRHNAKNTVYLQMNSQKPEDTAVYYCAARIYYWTYRYNYWGQGTQVTVSS”, the “polyreactivity (PSR sort gate)” value is reported as “high polyreactivity”.
For “QVQLVESGGGLVQAGGSLRLSCAASGSTFPYYDMGWYRQAPGKERELVAAISWSGDSTYYADSVKGRFTISRDNAKNTVYLQMKSLKAEDTAVYYCNADGKAGGDYDYWGQGTQVTVSS”, the “polyreactivity (PSR sort gate)” value was “low polyreactivity”.
In the case of “QVQLVESGGGLVQAGGSLRLSCAATGSIFPPYGMGWYRRAPGKERELVAVITRSGGSTYYADSVKGRFTISRDNAKNTVYLQMNSLKPEDTAVYYCNVDSTTTFVYVVVSVVYEYDYWGQGTQVTVSS”, the “polyreactivity (PSR sort gate)” value is reported as “low polyreactivity”.
With “QVQLVESGGGLVQAGGSLRLSCAASGRTFGWDAMGWYRQAPGKERELVAAINNSGDITYYADSVKGRFTISRDNAKNTVYLQMNSLKPEDTAVYYCAATAGYYGYPSEYDYWGQGTQVTVSS” the “polyreactivity (PSR sort gate)” value was “low polyreactivity”.
With “QGQLVESGGGLVQGGGSLRLSCAACGSTLPSSARGWYIQAPGKDRELVAALRSGGTTNYADSVKGRFTISRDNAKNTVYVQMNSLKPEDTAVYYCATSRYLYWRSRYDYWGQGTQVTVSS” the “polyreactivity (PSR sort gate)” value was “high polyreactivity”.
With “QVQLVESGGGLVQAGGSLRLSCAASGRTFLPYAMGWYRQAPGKERELVAAIDSSGGSTYYADSVKGRFTISRDNAKNTVYLQMNSLKPEDTAVYYCAADLYSSYYLYDSWGQGTQVTVSS” the “polyreactivity (PSR sort gate)” value was “low polyreactivity”.
